Columns and labels:
[1] = target: T1, Kap114pΔ(932-941) (S. cerevisiae, UniProt P53067 1-1004, Δ(932-941)); experiment: ITC; MicroCal iTC200, 25 °C, 20 mM HEPES pH 7.4, 150 mM NaCl; low concentration: 25 µM wild type or mutant Kap114p in the sample cell, 250 µM wild type or mutant yTBPC in the syringe; triplicate; conditions: both partners purified
T1 construct: also called GST-Kap114p (Δ932-941); source: E. coli Rosetta, purified (GST resin, MonoQ, Superdex 200)
T1 sequence (looked up): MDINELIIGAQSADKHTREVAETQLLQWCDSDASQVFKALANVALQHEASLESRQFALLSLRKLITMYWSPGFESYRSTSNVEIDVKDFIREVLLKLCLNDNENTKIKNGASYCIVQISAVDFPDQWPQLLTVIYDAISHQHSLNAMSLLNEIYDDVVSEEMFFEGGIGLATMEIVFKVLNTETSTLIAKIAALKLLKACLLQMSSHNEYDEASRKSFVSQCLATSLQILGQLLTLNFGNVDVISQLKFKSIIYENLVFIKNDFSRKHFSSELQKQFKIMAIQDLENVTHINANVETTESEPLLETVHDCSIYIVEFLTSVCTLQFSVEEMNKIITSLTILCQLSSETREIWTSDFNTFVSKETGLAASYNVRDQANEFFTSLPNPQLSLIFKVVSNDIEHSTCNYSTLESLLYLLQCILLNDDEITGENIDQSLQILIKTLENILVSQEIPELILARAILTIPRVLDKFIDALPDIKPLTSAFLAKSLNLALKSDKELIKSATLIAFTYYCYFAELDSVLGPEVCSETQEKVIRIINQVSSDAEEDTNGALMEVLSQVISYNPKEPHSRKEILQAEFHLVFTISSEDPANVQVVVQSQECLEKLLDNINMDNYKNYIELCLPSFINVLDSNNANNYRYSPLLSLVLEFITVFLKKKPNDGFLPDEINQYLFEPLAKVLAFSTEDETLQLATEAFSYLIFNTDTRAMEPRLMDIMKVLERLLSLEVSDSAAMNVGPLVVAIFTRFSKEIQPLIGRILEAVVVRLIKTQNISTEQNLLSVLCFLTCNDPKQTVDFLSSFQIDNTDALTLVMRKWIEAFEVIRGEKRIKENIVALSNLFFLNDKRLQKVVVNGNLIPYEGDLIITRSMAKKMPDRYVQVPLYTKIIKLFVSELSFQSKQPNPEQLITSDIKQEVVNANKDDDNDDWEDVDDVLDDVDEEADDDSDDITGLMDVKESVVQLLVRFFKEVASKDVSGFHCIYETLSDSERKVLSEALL

[2] = target: T2, Kap114pΔY939 (S. cerevisiae, UniProt P53067 1-1004, ΔY939); experiment: ITC; Kap114p (wild type or mutant) 50 uM in the sample cell, partner 500 uM in the syringe; 25 °C; 20 mM HEPES pH 7.4, 150 mM NaCl; triplicate; conditions: both partners purified
T2 construct: Kap114p, S. cerevisiae, full length with residue Y939 deleted; also called Kap114p(DY939); source: E. coli (Rosetta strain), purified (GST resin, MonoQ, Superdex 200)
T2 sequence (looked up): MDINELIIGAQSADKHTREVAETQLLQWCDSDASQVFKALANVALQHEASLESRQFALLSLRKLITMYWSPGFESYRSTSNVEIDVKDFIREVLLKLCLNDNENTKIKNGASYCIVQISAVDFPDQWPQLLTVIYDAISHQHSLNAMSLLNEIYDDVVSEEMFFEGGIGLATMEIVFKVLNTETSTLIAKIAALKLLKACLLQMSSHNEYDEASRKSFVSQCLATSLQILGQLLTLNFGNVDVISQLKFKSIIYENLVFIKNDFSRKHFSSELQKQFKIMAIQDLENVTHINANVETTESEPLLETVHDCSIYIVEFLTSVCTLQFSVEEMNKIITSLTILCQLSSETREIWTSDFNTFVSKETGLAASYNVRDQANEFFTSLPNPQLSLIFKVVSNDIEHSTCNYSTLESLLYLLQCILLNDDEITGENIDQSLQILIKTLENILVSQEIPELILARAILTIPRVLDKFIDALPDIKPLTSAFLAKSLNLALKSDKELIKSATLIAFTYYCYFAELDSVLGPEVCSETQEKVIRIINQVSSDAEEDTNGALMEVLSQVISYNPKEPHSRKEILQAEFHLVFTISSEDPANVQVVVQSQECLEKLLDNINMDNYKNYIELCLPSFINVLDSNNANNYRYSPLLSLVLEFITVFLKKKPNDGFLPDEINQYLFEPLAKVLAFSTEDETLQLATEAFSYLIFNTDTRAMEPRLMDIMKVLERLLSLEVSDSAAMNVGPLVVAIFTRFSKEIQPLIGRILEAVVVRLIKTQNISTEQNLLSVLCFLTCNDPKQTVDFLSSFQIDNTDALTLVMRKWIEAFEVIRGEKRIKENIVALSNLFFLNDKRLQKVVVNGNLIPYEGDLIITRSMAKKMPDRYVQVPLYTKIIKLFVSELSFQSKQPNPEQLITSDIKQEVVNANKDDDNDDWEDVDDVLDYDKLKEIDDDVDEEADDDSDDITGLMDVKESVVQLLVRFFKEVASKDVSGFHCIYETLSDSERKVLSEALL

| Binder | Kd [1] | Kd [2] |
| --- | --- | --- |
| yTBP^C wild type (core domain of yeast TATA-box binding protein, a.a. 61-240) (domain or fragment, S. cerevisiae, UniProt P13393 61-240, looked up, modified pET28a, 6xHis tag followed by a PreScission site; also called yTBPC WT; His-yTBP (61-240); source: E. coli Rosetta, purified (Ni-NTA, HiTrap SP, Superdex 75); not shown: His6, N-terminal, cleaved) SGIVPTLQNIVATVTLGCRLDLKTVALHARNAEYNPKRFAAVIMRIREPKTTALIFASGKMVVTGAKSEDDSKLASRKYARIIQKIGFAAKFTDFKIQNIVGSCDVKFPIRLEGLAFSHGTFSSYEPELFPGLIYRMVKPKIVLLIFVSGKIVLTGAKQREEIYQAFEAIYPVLSEFRKM | 79.9 nM |  |
| core domain of yTBP (a.a. 61-240) (domain or fragment, S. cerevisiae, UniProt P13393 61-240, looked up, 61-240; also called yTBP^C; yTBPc; source: E. coli (Rosetta strain), purified (Ni-NTA, HiTrap SP, Superdex 75); not shown: 6xHis, N-terminal, cleaved) SGIVPTLQNIVATVTLGCRLDLKTVALHARNAEYNPKRFAAVIMRIREPKTTALIFASGKMVVTGAKSEDDSKLASRKYARIIQKIGFAAKFTDFKIQNIVGSCDVKFPIRLEGLAFSHGTFSSYEPELFPGLIYRMVKPKIVLLIFVSGKIVLTGAKQREEIYQAFEAIYPVLSEFRKM |  | 37.1 nM |
